# Assay results reported in paper PMC9903292, “A Reductive Aminase Switches to Imine Reductase Mode for a Bulky Amine Substrate” (ACS Catalysis, 2023).
# What was measured:
# [1] = target: T1, IR77 (wt-IR77) (Ensifer adhaerens, UniProt A0A0L8BGL4, A208N); experiment: X-ray crystallography; assay type: binding; details: cofactor site at the dimer interface; P2_12_12_1, one open and one closed active site
# T1 construct: gene AC244_29830; domain-swapped homodimer, two active sites at the interface
# [2] = substrate: O=C1CCCCC1; experiment: UV spectrophotometry, NADPH oxidation; assay type: biochemical, Ensifer adhaerens; details: co-substrate pyrrolidine b at constant concentration
# [3] = substrate: C1CCNC1; experiment: purified protein; details: NADPH
# [4] = substrate: c1ccc2c(c1)CNC2; experiment: purified protein; details: co-substrate 10 mM cyclohexanone, NADPH
# [5] = substrate: O=C1CCCCC1; experiment: UV spectrophotometry, NADPH oxidation; assay type: biochemical, Ensifer adhaerens; details: co-substrate pyrrolidine b at constant concentration; remark: listed apart in the source
# From the text: UV spectrophotometry, NADPH oxidation on IR77 (wt-IR77)
# [6] = reductive amination, 16 mM and kcat 0.25
# [7] = co-substrate 10 mM cyclohexanone, reductive amination
# [8] = imine probably formed in solution and then reduced by the enzyme
# [9] = co-substrate cyclohexanone at constant concentration
# [10] = imine probably formed in solution
molecule,measurement,setting,value
NC(=O)c1ccc[n+]([C@@H]2O[C@H](COP(=O)(O)OP(=O)(O)OC[C@H]3O[C@@H](n4cnc5c(N)ncnc54)[C@H](OP(=O)(O)O)[C@@H]3O)[C@@H](O)[C@H]2O)c1 [NADP^+],X-ray crystallography,[1],electron density for the cofactor NADP^+ was again clearly visible within the active sites
"IR77 (wt-IR77) (Ensifer adhaerens) (protein, domain-swapped homodimer, two active sites at the interface) MKPSISVLGTGRMGSALARALLQAGYRTVVWNRTSEKAEPLAALGATVAPTVRQAIDASGIVIVNVSDYAATSTLLRASDVTPGLRGKLIVELTSGTPEGARETSQWTAAHGARYLDGAILATPDFIGTDAGTILLSGALEPFAANEDVFRALGGNVQHIGTEPGLANALDSAVLALMWGALFGGLHAIAVCRAEEIDLGELGRQWAATAPVVEGLVADLIKRTSAGRFVSDAETLSSISPHYGAFQHLKELMEARRIDRTVVDGYDAIFRRAIASGHLHDDFAALSQFMGKAEQP",Km,[2]; [6],15 mM
same,kcat,[2]; [6],0.24 s⁻¹
same,kcat/Km,[2]; [6],16 M⁻¹ s⁻¹
same,Km,[3]; [7],17 mM
same,kcat,[3]; [7],0.12 s⁻¹
same,kcat/Km,[3]; [7],7.2 M⁻¹ s⁻¹
same,Km,[4]; [8],0.61 mM
same,kcat,[4]; [8],0.30 s⁻¹
"IR77 (wt-IR77) (Ensifer adhaerens; A208S) (protein, domain-swapped homodimer, two active sites at the interface) MKPSISVLGTGRMGSALARALLQAGYRTVVWNRTSEKAEPLAALGATVAPTVRQAIDASGIVIVNVSDYAATSTLLRASDVTPGLRGKLIVELTSGTPEGARETSQWTAAHGARYLDGAILATPDFIGTDAGTILLSGALEPFAANEDVFRALGGNVQHIGTEPGLANALDSAVLALMWGALFGGLHAIAVCRAEEIDLGELGRQWASTAPVVEGLVADLIKRTSAGRFVSDAETLSSISPHYGAFQHLKELMEARRIDRTVVDGYDAIFRRAIASGHLHDDFAALSQFMGKAEQP",Km,[2]; kcat 0.44,9.6 mM
same,kcat,[2]; kcat 0.44,0.43 s⁻¹
same,kcat/Km,[2]; kcat 0.44,45 M⁻¹ s⁻¹
same,Km,[3]; [9],9.7 mM
same,kcat,[3]; [9],0.21 s⁻¹
same,kcat/Km,[3]; [9],22 M⁻¹ s⁻¹
same,Km,[4]; [10],0.60 mM
same,kcat,[4]; [10],0.23 s⁻¹
"IR77 (wt-IR77) (Ensifer adhaerens; C192I) (protein, domain-swapped homodimer, two active sites at the interface) MKPSISVLGTGRMGSALARALLQAGYRTVVWNRTSEKAEPLAALGATVAPTVRQAIDASGIVIVNVSDYAATSTLLRASDVTPGLRGKLIVELTSGTPEGARETSQWTAAHGARYLDGAILATPDFIGTDAGTILLSGALEPFAANEDVFRALGGNVQHIGTEPGLANALDSAVLALMWGALFGGLHAIAVIRAEEIDLGELGRQWAATAPVVEGLVADLIKRTSAGRFVSDAETLSSISPHYGAFQHLKELMEARRIDRTVVDGYDAIFRRAIASGHLHDDFAALSQFMGKAEQP",Km,[5],16 mM
same,kcat,[5],0.33 s⁻¹
same,kcat/Km,[5],21 M⁻¹ s⁻¹
same,Km,[3]; [9],9.0 mM
same,kcat,[3]; [9],0.1 s⁻¹
same,kcat/Km,[3]; [9],11 M⁻¹ s⁻¹
"IR77 (wt-IR77) (Ensifer adhaerens; A208N) (protein, domain-swapped homodimer, two active sites at the interface) MKPSISVLGTGRMGSALARALLQAGYRTVVWNRTSEKAEPLAALGATVAPTVRQAIDASGIVIVNVSDYAATSTLLRASDVTPGLRGKLIVELTSGTPEGARETSQWTAAHGARYLDGAILATPDFIGTDAGTILLSGALEPFAANEDVFRALGGNVQHIGTEPGLANALDSAVLALMWGALFGGLHAIAVCRAEEIDLGELGRQWANTAPVVEGLVADLIKRTSAGRFVSDAETLSSISPHYGAFQHLKELMEARRIDRTVVDGYDAIFRRAIASGHLHDDFAALSQFMGKAEQP",Km,[2],26 mM
same,kcat,[2],0.5 s⁻¹
same,kcat/Km,[2],20 M⁻¹ s⁻¹
same,Km,[4]; [10],0.94 mM
same,kcat,[4]; [10],0.28 s⁻¹
"IR77 (wt-IR77) (Ensifer adhaerens; A119S) (protein, domain-swapped homodimer, two active sites at the interface) MKPSISVLGTGRMGSALARALLQAGYRTVVWNRTSEKAEPLAALGATVAPTVRQAIDASGIVIVNVSDYAATSTLLRASDVTPGLRGKLIVELTSGTPEGARETSQWTAAHGARYLDGSILATPDFIGTDAGTILLSGALEPFAANEDVFRALGGNVQHIGTEPGLANALDSAVLALMWGALFGGLHAIAVCRAEEIDLGELGRQWAATAPVVEGLVADLIKRTSAGRFVSDAETLSSISPHYGAFQHLKELMEARRIDRTVVDGYDAIFRRAIASGHLHDDFAALSQFMGKAEQP",Km,[5],16 mM
same,kcat,[5],0.25 s⁻¹
same,kcat/Km,[5],16 M⁻¹ s⁻¹
same,Km,[3]; [9],23 mM
same,kcat,[3]; [9],0.09 s⁻¹
same,kcat/Km,[3]; [9],4 M⁻¹ s⁻¹
